1 molecule from US20190111122A1 (ENGINEERED ANTIGENS, published 2019) can be followed below.

This assay addresses T1, biotinylated human transferrin (human, UniProt P02787 20-698, biotinylated (sites not given)).
T1 construct: Used at 0.05-0.1 mg/mL as the labelling reagent; detected with R-phycoerythrin-conjugated streptavidin; also called Sigma-aldrich T3915-5MG
As to the kind of experiment: flow cytometry, E. coli C43 (DE3) cells expressing Nlobe_HpuA with SLAM1 or SLAM2, labelled with biotinylated human transferrin.

T1 sequence (P02787 20-698 limits assumed): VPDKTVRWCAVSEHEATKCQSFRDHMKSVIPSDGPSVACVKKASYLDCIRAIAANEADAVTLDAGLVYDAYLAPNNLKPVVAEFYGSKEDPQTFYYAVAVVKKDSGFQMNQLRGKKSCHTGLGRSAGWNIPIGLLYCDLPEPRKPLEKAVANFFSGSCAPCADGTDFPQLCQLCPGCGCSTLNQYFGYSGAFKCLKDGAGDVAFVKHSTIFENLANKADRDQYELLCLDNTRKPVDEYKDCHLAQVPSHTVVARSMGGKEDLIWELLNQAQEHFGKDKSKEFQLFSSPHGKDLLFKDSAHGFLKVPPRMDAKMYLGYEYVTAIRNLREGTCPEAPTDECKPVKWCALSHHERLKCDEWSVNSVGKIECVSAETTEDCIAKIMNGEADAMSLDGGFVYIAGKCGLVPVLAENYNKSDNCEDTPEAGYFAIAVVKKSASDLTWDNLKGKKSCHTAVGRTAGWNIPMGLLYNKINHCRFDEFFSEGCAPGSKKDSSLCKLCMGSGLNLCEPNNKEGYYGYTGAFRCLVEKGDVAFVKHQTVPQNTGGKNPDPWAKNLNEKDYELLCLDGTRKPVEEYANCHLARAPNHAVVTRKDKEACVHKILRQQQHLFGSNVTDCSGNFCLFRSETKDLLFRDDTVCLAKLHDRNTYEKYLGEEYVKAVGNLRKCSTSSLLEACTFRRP

B1: TbpB N-lobe fused to HpuA (N. meningitidis) (other)
chain: CLGGGGSFDLDSVETVQDMHSKPKYEDEKSQPESQQDVSENSGAAYGFAVKLPRRNAHFNPKYKEKHKPLGSMDWKKLQRGEPNSFSERDELEKKRGSSELIESKWEDGQSRVVGYTNFTYVRSGYVYLNKNNIDIKNNIVLFGPDGYLYYKGKEPSKELPSEKITYKGTWDYVTDAMEKQRFEGLGSAAGGDKSGALSALEEGVLRNQAEASSGHTDFGMTSEFEVDFSDKTIKGTLYRNNRITQNNSENKQIKTTRYTIQATLHGNRFKGKALAADKGATNGSHPFISDSDSLEGGFYGPKGEELAGKFLSNDNKVAAVFGAKQKDKKDAGGGVAEPHVPVSIPTATPLPTGEVKLSDDNSKIENINTADTGSTSGISIQQRKYEVESYGIKREEKAFIFQTPGGAQYALSSYADPITVSYSSPDFKIPDRHAGQRLADGSRIFICCSESGATSYAEITKQDYMKFGAWIGPNGEIDLFAGGFPVGKTPKPKYSWGNTEPETKGKGKITYQVWGIRVRNRQFVTSSYTPPKSGSYYGTLANTPVLSFITANFNSNKLAGEIRGNSDYGPSVKIENATINSLSFSGTATSGGKTGNLEGKFFGKFNGYRDTETSIGGKITFDGDRSLDTVFGGVSYKKELENNTDTSTTHLTK
notes: also called Nlobe-HpuA
For the molecule B1, the binding result was “binds”.
